Where no end group is shown, it is not given here.
How the values were obtained:
[1] = molecular target: T1, actin (Example II solid-phase assay and BIAcore; source not stated) (Oryctolagus cuniculus (Rabbit), UniProt P68135 3-377); test: SPR, BIAcore 3000, actin amine-coupled to CM5 chip
Protocol: (§1) SPR was performed on a BIAcore 3000 instrument (BIAcore, Uppsala, Sweden). Actin was diluted in 100 mM CH3COONa pH 4.6 to a final concentration of 20 μg/ml (200 μl total) resulting in ˜1 ng immobilized actin on a CM5 BIAcore sensor chip (GE Healthcare Bio-Sciences AB) using the standard BIAcore amine coupling chemistry protocol. The CM5 chip allows four separate flow cells to be operated in the BIAcore 3000 instrument used in these experiments. Coupling is achieved by activating the surface of the sensor chips with equal volumes of 50 mM N-hydroxysuccimide (NHS)/200 mM Nethyl-N-(3-[…])-carboiimide (EDC) (BIAcore, AB, Uppsala, Sweden) to form activated carboxyl groups. An actin solution (15 μg/ml) was run over the chip for 5 min at a rate of 10 μl/min, allowing the amine groups on the protein to react with the activated esters. In the final stage of immobilization, the surface was blocked by 1M ethanol amine, pH 8.0. […] Injections were performed simultaneously over all four channels and blank surface (a plain dextran matrix, channel 1) was used as control. The net signal was obtained by subtracting the blank signal from the signal of the immobilized surface. The association phase for protein or peptides binding to actin was followed for 4 min, and dissociation phases were monitored for 3 min. Surface regeneration between consecutive binding cycles included a 1 min injection of 1 mM NaOH. The response was monitored as a function of time (sensorgram) at 25° C. Multi-concentration data were globally fit using BIA evaluation 3.2 software.

[2] = molecular target: T1, actin (Example II solid-phase assay and …); test: SPR, BIAcore 3000, actin amine-coupled to CM5 chip; column heads taken as printed
Protocol: as §1

[3] = molecular target: T1, actin (Example II solid-phase assay and …); test: solid-phase actin binding assay: 500 ng actin coated per well, protein in 1:2 dilutions from 500 ng/well, rabbit anti-trT2-49 and goat anti-rabbit IgG-HRP, A655
Protocol: (§2) 96-well plates (MaxiSorp® flat-bottom 96-well plate, Fisher Scientific Inc., Fair Lawn, N.J.) were coated with 500 ng actin in 100 μl carbonate-bicarbonate buffer (pH 9.5) for 1 h at 37° C. The plate was washed once with TBS and then blocked with 3% BSA in 200 μl TBS buffer at 37° C., for 1 h. […] The wells were washed three times with TBST and then incubated with 100 μl goat anti-rabbit IgG-HRP (Jackson ImmunoResearch, West Grove, Pa.) diluted 1:10,000 in TBS, for 1 h at 37° C. Wells were then washed twice with TBST, and once with TBS before 100 μl substrate (1-step Ultra TMB-ELISA, Pierce, Fisher Scientific Inc.) were added. Absorbance at 655 nm was measured 10 min thereafter using a Power Wave 200 Microplate Scanning Spectrophotometer (Bio-Tek Instrument, Winooski, Vt.). Affinity was evaluated by double reciprocal plotting.
To further evaluate the strength of this interaction BIAcore analysis was performed in order to quantify and understand the kinetics of the interaction between these two molecules.

[4] = molecular target: T1, actin (Example II solid-phase assay and …); test: as above; remark: listed apart in the source
Protocol: as §2
(§3) For further insight on the actin binding site within the hRNASET2 protein sequence 29 candidate peptides were tested for their ability to bind actin.

[5] = molecular target: T1, actin (Example II solid-phase assay and …); test: as above; remark: listed apart in the source
Protocol: as §2, §3

[6] = molecular target: T1, actin (Example II solid-phase assay and …); test: solid-phase actin binding assay (ELISA, immobilized actin), double reciprocal plot
Protocol: as §2, §3

[7] = molecular target: T1, actin (Example II solid-phase assay and …); test: solid-phase actin binding assay: 500 ng actin coated per well, peptide in 1:2 dilutions from 500 ng/well, rabbit anti-trT2-49 and goat anti-rabbit IgG-HRP, A655
Protocol: as §2, §3

[8] = molecular target: T1, actin (Example II solid-phase assay and …); test: not given; presumably the solid-phase actin binding assay of the 29 peptides

B1: trT2-49m polypeptide (other)
chain: EGCNRSWPFNLEEIKDLLPEMRAYWPDVIHSFPNRSRFWKHEWEKHGTCAAQVDALNSQKKYFGRSLELYRADFKDALARVYGVIPKIQCLPPSQDEEVQTIGQIELCLTKQDQQLQNCTEPGEQPSPKQEVWLANGAAESRGLRVCEDGPVFYPPPKKTKH
**Q.** How did the kon [1] turn out when B1 was run?
**A.** Its kon is 500 M⁻¹ s⁻¹.

**Q.** What about the Kd [2] of the same binder?
**A.** The Kd was 19.4 µM.

**Q.** What about the koff [2] of the same binder?
**A.** The koff was 0.00969 s⁻¹.

**Q.** And the “EC50 (read off the curve)” value [3]?
**A.** The value was about 20 ng/100ul.

B2: truncated RNASET2 polypeptide trT2-49 (other)
chain: EGCNRSWPFNLEEIKDLLPEMRAYWPDVIHSFPNRSRFWKHEWEKHGTCAAQVDALNSQKKYFGRSLELYRELDLNSVLLKLGIKPSINYYQVADFKDALARVYGVIPKIQCLPPSQDEEVQTIGQIELCLTKQDQQLQNCTEPGEQPSPKQEVWLANGAAESRGLRVCEDGPVFYPPPKKTKH
notes: Described as amino acids 49-232 of full length, native RNASET2; also called truncated T2 polypeptide
**Q.** B2 was tested. Which kon [1] did it give?
**A.** Its kon is 1710 M⁻¹ s⁻¹.

**Q.** What about the Kd [2] of the same binder?
**A.** The Kd was 7.72 µM.

**Q.** What about the koff [2] of the same binder?
**A.** Its koff is 0.0132 s⁻¹.

**Q.** And the “EC50 (read off the curve)” value [3]?
**A.** Its value is about 30 ng/100ul.

**Q.** What about the “EC50 (read off the curve)” value [4] of the same binder?
**A.** The value was about 30 ng/100ul.

**Q.** And the “EC50 (read off the curve)” value [5]?
**A.** The value was about 30 ng/100ul.

B3: peptide A103-Q159 (peptide)
peptide: ALNSQKKYFGRSLELYRELDLNSVLLKLGIKPSINYYQVADFKDALARVYGVIPKIQ
notes: Synthetic peptide of human RNASET2, tested free in solution; also called 22A
**Q.** How did the Kd [6] turn out when B3 was run?
**A.** Its Kd is 0.068 µM.

**Q.** What about the Kd [2] of the same binder?
**A.** The Kd was 0.00322 µM.

**Q.** And the koff [2]?
**A.** Its koff is 3.04 s⁻¹.

**Q.** What about the “EC50 (read off the curve)” value [7] of the same binder?
**A.** Its value is about 20 ng/100ul.

B4: peptide K108-K133 (peptide)
peptide: KKYFGRSLELYRELDLNSVLLKLGIK
modifications: not fully specified
notes: Synthetic 26 aa peptide of human RNASET2 (helix 5 and 6), tested free in solution in ELISA and SPR; also called 22B; T2 peptide
**Q.** What does the source list for B4?
**A.** kon [1]: 3320 M⁻¹ s⁻¹; Kd [2]: 14.2 µM; koff [2]: 0.0458 s⁻¹

**Q.** Does KKYFGRSLELYRELDL (also called K108-L123 (16 aa)) [peptide K108-L123] bind [8]?
**A.** Result: no binding
